Four molecules from PMC2377106 (2003) can be followed below.

Assay [1] has as its target T1, VEGFR2(ΔKD)m -20-809 (Homo sapiens, UniProt P35968).
T1 chain: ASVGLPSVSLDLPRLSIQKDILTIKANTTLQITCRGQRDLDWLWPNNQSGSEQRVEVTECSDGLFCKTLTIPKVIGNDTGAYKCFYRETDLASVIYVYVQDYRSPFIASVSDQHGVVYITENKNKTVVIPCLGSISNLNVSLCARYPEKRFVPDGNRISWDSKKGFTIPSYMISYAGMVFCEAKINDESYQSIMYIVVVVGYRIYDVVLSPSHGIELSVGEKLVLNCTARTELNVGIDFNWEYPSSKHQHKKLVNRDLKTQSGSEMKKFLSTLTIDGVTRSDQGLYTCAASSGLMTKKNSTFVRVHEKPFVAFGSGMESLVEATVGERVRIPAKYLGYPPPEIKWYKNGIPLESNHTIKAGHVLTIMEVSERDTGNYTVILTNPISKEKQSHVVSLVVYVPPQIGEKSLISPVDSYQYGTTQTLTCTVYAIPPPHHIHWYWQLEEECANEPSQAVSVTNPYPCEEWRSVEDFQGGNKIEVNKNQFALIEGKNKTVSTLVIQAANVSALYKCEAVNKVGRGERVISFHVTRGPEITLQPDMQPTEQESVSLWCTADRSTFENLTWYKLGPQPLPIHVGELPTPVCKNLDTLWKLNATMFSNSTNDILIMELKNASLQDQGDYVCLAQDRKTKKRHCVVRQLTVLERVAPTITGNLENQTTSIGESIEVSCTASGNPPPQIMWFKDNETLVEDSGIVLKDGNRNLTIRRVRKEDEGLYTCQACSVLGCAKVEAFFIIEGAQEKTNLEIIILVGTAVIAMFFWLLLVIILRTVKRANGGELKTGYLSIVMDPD
Description: competition RIA.

Assay [2] addresses T1, VEGFR2(ΔKD)m -20-809. In words: ELISA. Background: ELISA stands for enzyme-linked immunosorbent assay.
Assay [3] deals with T1, VEGFR2(ΔKD)m -20-809. Description: solid-phase radioligand binding.

B1: VEGF161-CPG2(Q)3-H6 1-161 (protein)
chain: MTDRQTDTAPSPSYHLLPGRRRTVDAAASRGQGPEPAPGGGVEGVGARGVALKLFVQLLGCSRFGGAVVRAGEAEPSGAARSASSGREEPQPEEGEEEEEKEEERGPQWRLGARKPGSWTGEAAVCADSAPAARAPQALARASGRGGRVARRGAEESGPPH
modifications: fusion to N-terminus of CPG2(Q)3 (aa 23-415), H6 tag
Usually Kd stands for a measure of binding affinity in units of concentration. Lower therefore signals higher affinity. As for B1, the Kd was found to be 3.3 nM with VEGFR2(ΔKD)m -20-809 [1] and 1.06 nM in the assay with VEGFR2(ΔKD)m -20-809 [2].

B2: [125I]VEGF (protein)
chain: MTDRQTDTAPSPSYHLLPGRRRTVDAAASRGQGPEPAPGGGVEGVGARGVALKLFVQLLGCSRFGGAVVRAGEAEPSGAARSASSGREEPQPEEGEEEEEKEEERGPQWRLGARKPGSWTGEAAVCADSAPAARAPQALARASGRGGRVARRGAEESGPPHSPSRRGSASRAGPGRASETMNFLLSWVHWSLALLLYLHHAKWSQAAPMAEGGGQNHHEVVKFMDVYQRSYCHPIETLVDIFQEYPDEIEYIFKPSCVPLMRCGGCCNDEGLECVPTEESNITMQIMRIKPHQGQHIGEMSFLQHNKCECRPKKDRARQEKKSVRGKGKGQKRKRKKSRYKSWSVPCGPCSERRKHLFVQDPQTCKCSCKNTDSRCKARQLELNERTCRCDKPRR
modifications: 125I-labelled VEGF
Turning to B2, the Kd in the assay with VEGFR2(ΔKD)m -20-809 [3] came to 0.51 nM.

B3: VEGF115-CPG2(Q)3-H6 1-115 (protein)
chain: MTDRQTDTAPSPSYHLLPGRRRTVDAAASRGQGPEPAPGGGVEGVGARGVALKLFVQLLGCSRFGGAVVRAGEAEPSGAARSASSGREEPQPEEGEEEEEKEEERGPQWRLGARK
modifications: fusion to N-terminus of CPG2(Q)3 (aa 23-415), H6 tag
Turning to B3, the figures for the Kd in the assay with VEGFR2(ΔKD)m -20-809 [1] and with VEGFR2(ΔKD)m -20-809 [2] were 9.6 nM and 0.51 nM, respectively.

B4: CPG2(Q)3-VEGF109-H6 1-109 (protein)
chain: MTDRQTDTAPSPSYHLLPGRRRTVDAAASRGQGPEPAPGGGVEGVGARGVALKLFVQLLGCSRFGGAVVRAGEAEPSGAARSASSGREEPQPEEGEEEEEKEEERGPQW
modifications: fusion to C-terminus of CPG2(Q)3 (aa 23-415), H6 tag
As for B4, the Kd worked out at 1.3 nM with VEGFR2(ΔKD)m -20-809 [1] and 0.75 nM with VEGFR2(ΔKD)m -20-809 [2].
